Tested on: NCI-H460 tumor-bearing mice (lung cancer)
Test: Biodistribution: lutetium accumulation in tumor, plasma and healthy tissues by ICP-MS
Format: in vivo
Details: 24 h; for Kidney uptake, % ID/g 24 h / Liver uptake, % ID/g 24 h / Plasma, % ID/g 24 h / Tumor uptake, % ID/g, 24 h: second table
Method: Lutetium accumulation was measured in tumor, plasma and healthy tissues of NCI-H460 tumor-bearing mice (lung cancer). NCJ-H460 tumor bearing mice were dosed with 0.5 mg/kg of lutetium conjugates. At the time points indicated, mice were sacrificed and tumor, liver, kidneys and plasma were taken. All tissues were analyzed for lutetium content by ICP-MS, and lutetium uptake in % ID/g determined by the following equation: […]
Biodistribution at 24 h and Tumor/Kidney ratio (T/K), Tumor/Liver ratio (T/L), Tumor/Plasma ratio (T/P) are give in the table below.

Row | SMILES | T/K (Tumor/Kidney ratio) | T/L (Tumor/Liver ratio) | T/P (Tumor/Plasma ratio) | Kidney uptake, % ID/g 24 h [% ID/g] | Liver uptake, % ID/g 24 h [% ID/g] | Plasma, % ID/g 24 h [% ID/g] | Tumor uptake, % ID/g, 24 h [% ID/g]
1 | CCNC(=O)c1nnc(-c2cc(C(C)C)c(O)cc2O)n1-c1ccc(OC2CCN(C(=O)CCOCCOCCOCCOCCNC(=O)CN3CCN4CCN5CCN(CC3)CC(=O)[O][Lu]([O]C(=O)C4)[O]C(=O)C5)CC2)cc1 [CMP39] | 3.63 | 3.67 | 4.25 | 0.48 | 0.47 | 0.41 | 1.74
2 | CC(C)c1cc(-c2nnc(O)n2-c2ccc(OC3CCN(C(=O)CCOCCOCCOCCOCCNC(=O)CN4CCN5CCN6CCN(CC4)CC(=O)[O][Lu]([O]C(=O)C5)[O]C(=O)C6)CC3)cc2)c(O)cc1O [CMP40] | 5.08 | 62.28 | 29.23 | 0.14 | 0.01 | 0.02 | 0.71
3 | CCNC(=O)c1nnc(-c2cc(C(C)C)c(O)cc2O)n1-c1ccc(OC2CCN(C(=O)CCOCCOCCOCCOCCOCCOCCOCCOCCOCCOCCOCCOCCNC(=O)CN3CCN4CCN5CCN(CC3)CC(=O)[O][Lu]([O]C(=O)C4)[O]C(=O)C5)CC2)cc1 [CMP41] | 5.10 | 6.34 | 8.37 | 0.86 | 0.69 | 0.52 | 4.39
4 | CC(C)c1cc(-c2nnc(O)n2-c2ccc(OC3CCN(C(=O)CCOCCOCCOCCOCCOCCOCCOCCOCCOCCOCCOCCOCCNC(=O)CN4CCN5CCN6CCN(CC4)CC(=O)[O][Lu]([O]C(=O)C5)[O]C(=O)C6)CC3)cc2)c(O)cc1O [CMP42] | 2.23 | 9.89 | 26.76 | 0.26 | 0.06 | 0.02 | 0.57
5 | CCNC(=O)c1nnc(-c2cc(C(C)C)c(O)cc2O)n1-c1ccc(CN2CCN(C(=O)C[C@H](NC(=O)CCNC(=O)[C@H](CO)NC(=O)[C@H](CO)NC(=O)[C@H](CO)NC(=O)CC[C@H](C(=O)O)N3CCN4CCN5CCN(CC3)CC(=O)[O][Lu]([O]C(=O)C5)[O]C(=O)C4)C(=O)N[C@H](C)C(=O)N3CCN(Cc4ccc(-n5c(C(=O)NCC)nnc5-c5cc(C(C)C)c(O)cc5O)cc4)CC3)CC2)cc1 [CMP44] | 3.28 | 2.34 | 2.47 | 1.34 | 1.88 | 1.78 | 4.39
6 | CCNC(=O)c1nnc(-c2cc(C(C)C)c(O)cc2O)n1-c1ccc(CN2CCN(C(=O)C[C@H](NC(=O)CCNC(=O)[C@@H](CO)NC(=O)[C@@H](CO)NC(=O)[C@@H](CO)NC(=O)CC[C@H](C(=O)O)N3CCN4CCN5CCN(CC3)CC(=O)[O][Lu]([O]C(=O)C5)[O]C(=O)C4)C(=O)N[C@H](C)C(=O)N3CCN(Cc4ccc(-n5c(C(=O)NCC)nnc5-c5cc(C(C)C)c(O)cc5O)cc4)CC3)CC2)cc1 [CMP48] | 3.08 | 2.33 | 4.87 | 1.50 | 1.99 | 0.95 | 4.64

— US20260166158A1, “HSP90-BINDING CONJUGATES AND FORMULATIONS THEREOF” (Fusion Pharmaceuticals Inc., priority 2019, published 2026)
